Measurements as given in patent US20250041379A1, “METHODS AND COMPOSITIONS FOR THE TREATMENT OF CANCER” (Vigeo Therapeutics, Inc., priority 2021, published 2025).
No end group written: not given here.

Experiments:
pancreatic cancer [1] = test: Phase I/II clinical study: tumor burden, stable disease and days on study in pancreatic cancer (Part 2); assay type: in vivo, human
Method: VT1021 was evaluated in a recently completed phase I/II open-label, multicenter, dose escalation (Part 1) and expansion (Part 2) clinical study in advanced, refractory, solid tumors including pancreatic cancer (NCT03364400). Seven subjects with pancreatic cancer were dosed in Part 1 and 32 were dosed in Part 2, 17 of which were considered evaluable as having completed ≥1 cycle of VT1021 treatment and tumor imaging during cycle 2. […] In the “expansion stage” of the VT1021-01 Study, subjects diagnosed with recurrent GBM, pancreatic cancer, ovarian cancer and other solid tumors were enrolled. They were treated with VT1021 at 11.8 mg/kg, twice weekly by IV infusion. The blood samples were collected from the clinical study at pre-treatment, 0, 2, 4, 6 hours post treatment to measure the levels of VT1021 (FIG. 2). The tumor biopsy samples prior to treatment and during treatment were collected from the clinical study to measure expression levels of biomarkers including CD36 and CD47, as well as cell surface markers for immune cell populations in the TME by immunohistochemistry assays (FIG. 3, FIG. 4, FIG. 5). The correlation between days on study and tumor shrinkage versus expression profile of CD36 and CD47 was analyzed (FIG. 4). The general expression profile of CD36 and CD47 has been assessed by IHC on Tumor Tissue Microarrays (TMAs), which contain biopsy samples collected from pancreatic cancer patients. TMAs were purchased from commercial sources, not related to the VT1021-01 clinical study. […] A waterfall plot illustrates changes in tumor burden for 14 subjects in Part 2 with pancreatic cancer with measurable disease.

subjects with rGBM = test: Phase I/II clinical study (NCT03364400): adverse events in subjects with recurrent GBM; assay type: in vivo, human
Method: VT1021 was evaluated in a recently completed phase I/II open-label, multicenter, dose escalation (Part 1) and expansion (Part 2) clinical study in advanced, refractory, solid tumors including recurrent GBM (rGBM) (NCT03364400). Thirty-two subjects with rGBM were dosed in Part 2, 22 of which were considered evaluable as having completed ≥1 cycle of VT1021 treatment and tumor imaging during cycle 2. […]

[2] = test system: tumor microenvironment (TME) in rGBM; test: IHC and multiplex ion beam imaging of immune cells in rGBM tumor biopsy pair; assay type: in vivo, human; conditions: rGBM subject with CR
Text: FIG. 11C is a bar graph of the change in the percentage of M1 and M2 macrophages in patient tumor tissue as determined by metal ion immunostaining.
FIG. 11E is a bar graph depicting the fold-change in cytotoxic T lymphocytes (CTLs) in patients prior to the onset of treatment with VT1021 (pre-treatment) and during treatment with VT1021 (On-Study) as determined by metal ion immunostaining.
FIG. 11F is a bar graph depicting the fold-change in total and monocytic myeloid derived suppressor cells (MDSCs) in patients prior to the onset of treatment with VT1021 (pre-treatment) and during treatment with VT1021 (On-Study) as determined by metal ion immunostaining.
The blood samples were collected from GBM subjects in the expansion phase, who were treated by VT1021 at 11.8 mg/kg, twice weekly, by IV infusion. VT1021 levels were measured and analyzed among male and female subjects (FIG. 7). Days on study have been collected from the same group of subjects (FIG. 8). […] CD36 and CD47 levels have been measured by immunohistochemistry assays in the pre-treatment tumor biopsy samples of the GBM subjects (FIG. 9, FIG. 10). Levels of Tsp-1 were measured by ELISA for circulating Tsp-1 levels in the collected blood samples, and by immunohistochemistry for the level of Tsp-1 accumulated in the tumor biopsy samples (FIG. 10). The infiltration of immune and inflammatory cells, specifically, MDSCs, T cells and macrophages, were determined by immunohistochemical analysis of the levels of cell surface markers in the tumor biopsy samples of subjects (FIG. 11).
FIG. 11A, FIG. 11B, FIG. 11C, FIG. 11D, FIG. 11E, and FIG. 11F are charts showing modulation of the immune system by VT1021 in circulation and in the TME. […] Proliferating CTLs increased ≥1.5 fold regardless of clinical response, proliferating helper T cells increased ≥1.5 fold in CR/PR and PD subjects while monocytic MDSCs (mMDSCs) and activated MDSCs decreased≤0.5 fold in all evaluable subjects. […] Percent of M1 increased 1.9-fold while M2 decreased 0.6-fold after treatment. […] CTLs increased >4 fold while total and mMDSCs […] >15 fold in the on-study biopsy compared to pre-treatment.

[3] = test system: animal models of ovarian, pancreatic, and breast cancer; test: Preclinical studies in animal models of cancer; assay type: in vivo; conditions: multiple animal models of ovarian
pancreatic cancer [4] = test: Example 3: treatment of pancreatic cancer with dually elevated CD36 and CD47; assay type: in vivo; conditions: expected
Method: (§1) Subjects having pancreatic cancer are identified using standard clinical protocols. Samples are obtained and levels of CD36 and CD47 measured using methods known in the art. Subjects presenting with dually elevated CD36 and CD47 levels as compared to suitable controls are selected for dosing with VT1021. Subjects advancing to the treatment phase are administered VT1021. Frequency and dosage are determined in accordance with the stage and severity of disease accordingly to methods standard in the art. Tumor burden and other disease indicators are measured and data compiled using methods known in the art.

GBM = test: Example 4: treatment of GBM with dually elevated CD36 and CD47; assay type: in vivo; conditions: expected
Method: as §1, with “GBM” for “pancreatic cancer”

[5] = GBM, 32 Subjects, all cycles, maximum grade, regardless of causality
[6] = on-study biopsy vs pre-treatment, multiplex ion beam imaging, increased

Substance: cyclic DWLPK (also: cyclic, mode of cyclisation not given here) [VT1021, 5-amino acid cyclic peptide from prosaposin; Tsp-1-inducing agent]
- subjects with stable disease (pancreatic cancer [1]; Part 2 pancreatic cancer, all dually high CD36 and CD47): 3 subjects
- subjects with reduction of tumor burden (pancreatic cancer [1]; of 14 Part 2 pancreatic cancer subjects with measurable disease, all dually high CD36 and CD47): 5 subjects
- average time remained on the study (pancreatic cancer [1]; the 5 pancreatic cancer subjects with reduction of tumor burden (dually high)): 105 days
- Abdominal Pain (AE), All Grades (subjects with rGBM; [5]): 5
- Abdominal Pain (AE), Grade 1-2 (subjects with rGBM; [5]): 5
- Diarrhea (AE), All Grades (subjects with rGBM; [5]): 4
- Diarrhea (AE), Grade 1-2 (subjects with rGBM; [5]): 4
- Fall (AE), All Grades (subjects with rGBM; [5]): 9
- Fall (AE), Grade 1-2 (subjects with rGBM; [5]): 9
- Infusion reaction (AE), All Grades (subjects with rGBM; [5]): 3
- Infusion reaction (AE), Grade 1-2 (subjects with rGBM; [5]): 3
- Nausea (AE), All Grades (subjects with rGBM; [5]): 3
- Nausea (AE), Grade 1-2 (subjects with rGBM; [5]): 3
- Vomiting (AE), All Grades (subjects with rGBM; [5]): 3
- Vomiting (AE), Grade 1-2 (subjects with rGBM; [5]): 2
- Vomiting (AE), Grade 3-4 (subjects with rGBM; [5]): 1
- major adverse events (AEs) (subjects with rGBM; phase I/II study, solid tumors including rGBM): no major adverse events
- M2 macrophages, fold change ([2]; biopsy pair pre-treatment vs on-study, decreased): 0.6 fold
- Percent of M1 macrophages, fold change ([2]; biopsy pair pre-treatment vs on-study, increased): 1.9 fold
- CTLs, fold change [2, 6]: > 4 fold
- mMDSCs, fold change [2, 6]: > 15 fold
- total MDSCs, fold change [2, 6]: > 15 fold
- anti-tumor activity [3]: robust anti-tumor activity
- tumor burden compared to control subjects (pancreatic cancer [4]): reduction in tumor burden
- tumor burden compared to control subjects (GBM): reduction in tumor burden
